# Measurements reported in the DeepSol protein solubility set.
# Test: soluble on expression in E. coli; label from the status in PepcDB or PDB records
row,Sequence,soluble on expression in E. coli
1,MSSAAKNFYQVVKSAPKGRFKGIKRDYTVEDVLKLRGSIDIDYTLATRGANKLWQLLHTEPFVPALGAQTGNQAVQMVRAGLKAIYLSGWQVAADANSAGDMYPDQSLYPANSGPELAKRINRSLRRADQIEACEAEDYLAQRDWYAPIVADAEAGFGGALNCFELMKAYIEAGAAGVHYEDQLGSEKKCGHMGGKVLIPTAQHIRHLNASRLAADVCGVPTIIVARTDAESSRLLTSDIDPRDHPYIDYEAGRTIEGFYRLKDSTAIQYCIDRAIQYAPYTDLIWMETSHPTIADAREFAEGVHKQYPDKMFAYNCSPSFNWKKHLSPSQMEKFQKELGAMGFKYQFITLAGYHANSYSMFDLARNYKEKGMLAYSGLQEGEFAAEKHGYTAVKHQREVGTGYFDAVSRAVTGGLSSTTALSGSTEEAQFQTAVASQDEEILSLTAQNVAGDEKILTPDALRFLHDLNTEFNPRRLRLLSKRNQVQADINNSLWFPDFNKETEVLRSDQGWKGAEIPRDLQDRRVEITGPTDRKMVINAMNSGANVFMADFEDSNSPTWRNQLEGQINLYDAVRNNISYTHPTTKKEYTLNEKHAVLKVRPRGWHLPEKHVLIHNQPTSGSLFDFGLFVFHNAKALIAQGSGPYFYLPKLQSAEEAQLWADVFKYTEDKLGLARGTIKCTVLIEHLLASFQLHEIIHALKDNIVGLNCGRWDYIFSYIKTFQNHRKFLLPDRFQIGMTAPFMRNYSLEVIKACHLRGIHAMGGMAAQIPIKHDQVANDKAFALVRADKEREATDGHDGTWVAHPGLVPLAKRVFDQMMPKPNQISKNLTRANCTKEDLTVIPEGTRTEAGFRHNISVTLGYLDSWLRGTGCVPLYNLMEDAATAEISRAQLWQWLHHDAKLEDGRTIDAGLVKQTIAAETERRLIRAGSVVNRIPEAADLLEKFVTEEKMSDFLTTDAYDRLVSEGY,not soluble
2,MAGDPMRKSKLTFIATFLILLFLSMPYKAHAASQTPITRADAEQRALTMINLNWTYSKSKNGVLPSAYSGSITAPSQFRGIENVVATGIPYCWGGFDGLNSSSYGESWTNFTDAVNKGAFVGNVKSSSYGHITGTAGLDCSGFVQATFNIKDYKLSTSTIFNQYFTKIDIKDIKHMDILNLPGNHVVIFDKWGTRNGVNGAYTYEATPDTTYGGIQGTKQYFMSMNTVSQYIPGRYVNIKEVAYVQVINASSLNIRTGPSTSYPIIGTISQNQIAEVTGYSSDGTWYKIKINGIEGYASSTYLTYVNNLEHHHHHH,not soluble
3,MAEQQQEQQIRVRIPRKEENEILGIIEQMLGASRVRVRCLDGKTRLGRIPGRLKNRIWVREGDVVIVKPWEVQGDQKCDIIWRYTKTQVEWLKRKGYLDELL,soluble
4,MGSDKIHHHHHHMSEALELLGQDIVARAPGVLGHSVAFGELTIVARAASVIDTLTFLRDDAACRFHQLIDLTGVDYPERAARFDVVYHLLSLVKNHRIRLKVSTDEDTPVPSVTPVFPVADWFEREAFDMYGIFFDGHPDLRRILTDYGFHGHPLRKDFPMTGYVEVRYDDELKRVVYEPVKITEFRAFDFLSPWEGAKYALPGDEKAQ,not soluble
5,MGSDKIHHHHHHMVAATSQNTFDSPRSPLYNFTMDIRPLSDVAGVILVGGRSRRMGRDKALIPLGGKPLVERVIDAFRPLFERILLVGDRGERFASYGLPVFPDIHPGSALGGLYTGLVRAGTPHVFVSACDVPWPDPRVIARLCSLREGFDVVVPRTVGGSEPLFAVYGTGCLPAMERMLREGNYRIYDFYPEVRTRYVEQAELADLVTPARTFVNVNTPEEFETIRNREEGMAIKAVSFVAKSGTGKTTLLEKVIAELKGRGYRIGVIKHDAHRFDIDHPGKDSHRLAAAGADTMLIASPEKLALVKKYDESPPLDELLATYFGDVDIVLTEGFKKSSLPKIEVHRMERSATLLCRGEEHDPTLVAVASDAALALDVPVFDLNNPAQVADFVERTFLAAGAA,not soluble
6,MGHHHHHHSHMKVGKNNFRPPPKVESSVVRIEPKNPPPPINFQEWDGLVRITFVRKNKTLSAAFKSSAVQQLLEKNYRIHCSVHNIIIPEDFSIADKIQQILTSTGFSDKRARSMDIDDFIRLLHGFNAEGIHFS,not soluble
7,MSLKLVTFDLDDTLWDTAPAIAGAEVTLRDWLAEHAPKLGAIPVEHLWEIRSRLVAEDPSFKHRISALRRRVLFHALEDAGYDPDEAQDLADRGFEVFLHGRHQVQIFPEVQPMLEILAKTFTLGVITNGNADVRRLGLADYFAFALCAEDLGIGKPDPAPFVEALRRAKVDASAAVHVGDHPKDDIAGAQQAGMRAIWYNPQGKAWDADRLPDAEIHNLSQLPEVLARWAEGHHHHHH,soluble
8,GPPPPPGPPPPPGPPPPPGL,soluble
